Bridge positions count the residues as written; N and C are the ends. Square brackets hold non-standard residues; d marks the D form. Ends that are not written are not given here. Bip = N[C@@H](Cc1ccc(-c2ccccc2)cc1)C(=O)O; 2Nal = N[C@@H](Cc1ccc2ccccc2c1)C(=O)O; d2Nal = N[C@H](Cc1ccc2ccccc2c1)C(=O)O; Bta = N[C@@H](Cc1csc2ccccc12)C(=O)O; hArg = N=C(N)NCCCC[C@H](N)C(=O)O; Pen = CC(C)(S)[C@H](N)C(=O)O; Nle = CCCC[C@H](N)C(=O)O; Aib = CC(C)(N)C(=O)O; Ava = NCCCCC(=O)O; GABA = NCCCC(=O)O; βAla = NCCC(=O)O
B1: Ac-c(Cys-Glu-His-D-2-Nal-Arg-Bal-Ala-Cys)-Pro-Pro-Lys-Asp-β-Ala-Tyr-Gly-Arg-Lys-Lys-Arg-Arg-Gln-Arg-Arg-Arg-NH2 (peptide)
peptide: CEHXRXACPPKDXYGRKKRRQRRR
modifications: N-terminal acetyl; X4=D-2-Nal; X6=Bal; X13=β-Ala; Cys1-Cys8 disulfide; C-terminal amide
B2: Ac-Nle-c(Asp-D-Ala-His-D-Phe-Arg-Bal-Lys)-NH2 (peptide)
peptide: Ac-[Nle]D[dA]H[dF]R[Bta]K-NH2
modifications: lactam 2-8
SMILES: CCCC[C@H](NC(C)=O)C(=O)N[C@H]1CC(=O)NCCCC[C@@H](C(N)=O)NC(=O)[C@H](Cc2csc3ccccc23)NC(=O)[C@H](CCCNC(=N)N)NC(=O)[C@@H](Cc2ccccc2)NC(=O)[C@H](Cc2c[nH]cn2)NC(=O)[C@@H](C)NC1=O
B3: Ac-c(Cys-Glu-His-D-2-Nal-Arg-Trp-Ala-Cys)-Pro-Pro-Lys-Asp-NH2 (peptide)
peptide: Ac-CEH[d2Nal]RWACPPKD-NH2
modifications: disulfide 1-8
SMILES: CC(=O)N[C@H]1CSSC[C@@H](C(=O)N2CCC[C@H]2C(=O)N2CCC[C@H]2C(=O)N[C@@H](CCCCN)C(=O)N[C@@H](CC(=O)O)C(N)=O)NC(=O)[C@H](C)NC(=O)[C@H](Cc2c[nH]c3ccccc23)NC(=O)[C@H](CCCNC(=N)N)NC(=O)[C@@H](Cc2ccc3ccccc3c2)NC(=O)[C@H](Cc2c[nH]cn2)NC(=O)[C@H](CCC(=O)O)NC1=O
B4: Ac-c(Cys-Glu-His-D-2-Nal-Arg-2-Nal-Aib-Cys)-Pro-Pro-Lys-Asp-NH2 (peptide)
peptide: Ac-CEH[d2Nal]R[2Nal][Aib]CPPKD-NH2
modifications: disulfide 1-8
SMILES: CC(=O)N[C@H]1CSSC[C@@H](C(=O)N2CCC[C@H]2C(=O)N2CCC[C@H]2C(=O)N[C@@H](CCCCN)C(=O)N[C@@H](CC(=O)O)C(N)=O)NC(=O)C(C)(C)NC(=O)[C@H](Cc2ccc3ccccc3c2)NC(=O)[C@H](CCCNC(=N)N)NC(=O)[C@@H](Cc2ccc3ccccc3c2)NC(=O)[C@H](Cc2c[nH]cn2)NC(=O)[C@H](CCC(=O)O)NC1=O
B5: Ac-Nle-c(Cys-His-D-Phe-Arg-Trp-Apn-Cys)-NH2 (peptide)
peptide: Ac-[Nle]CH[dF]RW[Ava]C-NH2
modifications: disulfide 2-8
SMILES: CCCC[C@H](NC(C)=O)C(=O)N[C@H]1CSSC[C@@H](C(N)=O)NC(=O)CCCCNC(=O)[C@H](Cc2c[nH]c3ccccc23)NC(=O)[C@H](CCCNC(=N)N)NC(=O)[C@@H](Cc2ccccc2)NC(=O)[C@H](Cc2c[nH]cn2)NC1=O
B6: Ac-Arg-c(Cys-His-D-Phe-Arg-Trp-Gaba-Pen)-NH2 (peptide)
peptide: Ac-RCH[dF]RW[GABA][Pen]-NH2
modifications: disulfide 2-8
SMILES: CC(=O)N[C@@H](CCCNC(=N)N)C(=O)N[C@H]1CSSC(C)(C)[C@@H](C(N)=O)NC(=O)CCCNC(=O)[C@H](Cc2c[nH]c3ccccc23)NC(=O)[C@H](CCCNC(=N)N)NC(=O)[C@@H](Cc2ccccc2)NC(=O)[C@H](Cc2c[nH]cn2)NC1=O
B7: Ac-c(Cys-Glu-His-D-2-Nal-Arg-2-Nal-Ala-Cys)-Pro-Pro-Lys-Asp-β-Ala-Tyr-Gly-Arg-Lys-Lys-Arg-Arg-Gln-Arg-Arg-Arg-NH2 (peptide)
peptide: CEHXRXACPPKDXYGRKKRRQRRR
modifications: N-terminal acetyl; X4=D-2-Nal; X6=2-Nal; X13=β-Ala; Cys1-Cys8 disulfide; C-terminal amide
B8: Ac-c(Cys-Glu-His-D-2-Nal-Arg-1-Nal-Ala-Cys)-Pro-Pro-Lys-Asp-β-Ala-Tyr-Gly-Arg-Lys-Lys-Arg-Arg-Gln-Arg-Arg-Arg-NH2 (peptide)
peptide: CEHXRXACPPKDXYGRKKRRQRRR
modifications: N-terminal acetyl; X4=D-2-Nal; X6=1-Nal; X13=β-Ala; Cys1-Cys8 disulfide; C-terminal amide
B9: Ac-Nle-c(Cys-D-Ala-His-D-Phe-Arg-Trp-Cys)-(Doc)2-Tyr-Gly-Arg-Lys-Lys-Arg-Arg-Gln-Arg-Arg-Arg-NH2 (peptide)
peptide: XCAHFRWCXXYGRKKRRQRRR
modifications: N-terminal acetyl; X1=Nle; D-Ala3; D-Phe5; X9=Doc; X10=Doc; Cys2-Cys8 disulfide; C-terminal amide

What follows are binders tested against hMC3-R (human) (UniProt P41968) (assay: cell-based or functional assay).
hMC3-R (human), sequence (P41968 whole entry): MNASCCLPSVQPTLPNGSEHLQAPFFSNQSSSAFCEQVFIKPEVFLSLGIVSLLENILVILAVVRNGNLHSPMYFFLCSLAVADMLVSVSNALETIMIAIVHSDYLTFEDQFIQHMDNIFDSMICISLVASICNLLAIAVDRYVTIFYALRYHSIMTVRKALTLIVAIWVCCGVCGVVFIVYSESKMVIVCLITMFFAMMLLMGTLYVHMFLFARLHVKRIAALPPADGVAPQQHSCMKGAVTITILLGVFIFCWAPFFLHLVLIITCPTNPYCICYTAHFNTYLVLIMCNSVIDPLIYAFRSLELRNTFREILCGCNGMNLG

Binder | cAMP Kb | cAMP EC50
B1 | 112 | 
[dF]CH[d(Et)Tyr][hArg][Bip][βAla][dC]T-NH2 (disulfide 2-8) [D-Phe-c(Cys-His-D-(Et)Tyr-hArg-Bip-β-Ala-D-Cys)-Thr-NH2] |  | 81.8 nM
B2 |  | 3.22 nM
B3 | 33.4 | 
B4 | 221 | 
[dF]CH[d(Et)Tyr][hArg]W[βAla][dC]T-NH2 (disulfide 2-8) [D-Phe-c(Cys-His-D-(Et)Tyr-hArg-Trp-β-Ala-D-Cys)-Thr-NH2] |  | 2.71 nM
B5 |  | 0.199 nM
B6 |  | 8.09 nM
B7 | 25.6 | 
Ac-[Nle]CH[dF]RW[GABA][Pen]-NH2 (disulfide 2-8) [Ac-Nle-c(Cys-His-D-Phe-Arg-Trp-Gaba-Pen)-NH2] |  | 0.24 nM
B8 | 215 | 

What follows are binders tested against hMC5-R (human) (UniProt P33032) (assay: cell-based or functional assay).
hMC5-R (human), sequence (P33032 whole entry): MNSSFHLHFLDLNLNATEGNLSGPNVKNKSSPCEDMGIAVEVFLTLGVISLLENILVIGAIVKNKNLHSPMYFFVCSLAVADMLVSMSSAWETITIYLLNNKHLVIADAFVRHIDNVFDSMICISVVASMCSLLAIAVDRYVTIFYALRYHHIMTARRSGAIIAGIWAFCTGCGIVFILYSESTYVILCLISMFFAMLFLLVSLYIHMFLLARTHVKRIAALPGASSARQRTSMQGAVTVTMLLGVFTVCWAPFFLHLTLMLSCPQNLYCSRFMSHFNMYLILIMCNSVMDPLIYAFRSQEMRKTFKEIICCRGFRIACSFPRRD

Binder | cAMP EC50
B9 | 147 nM
B1 | 1800 nM
[dF]CH[d(Et)Tyr][hArg][Bip][βAla][dC]T-NH2 (disulfide 2-8) [D-Phe-c(Cys-His-D-(Et)Tyr-hArg-Bip-β-Ala-D-Cys)-Thr-NH2] | 31.8 nM
B2 | > 10000 nM
B3 | 6.84 nM
B4 | 869 nM
[dF]CH[d(Et)Tyr][hArg]W[βAla][dC]T-NH2 (disulfide 2-8) [D-Phe-c(Cys-His-D-(Et)Tyr-hArg-Trp-β-Ala-D-Cys)-Thr-NH2] | 2.38 nM
B5 | 1.73 nM
B6 | 23.2 nM
B7 | 82.9 nM
Ac-[Nle]CH[dF]RW[GABA][Pen]-NH2 (disulfide 2-8) [Ac-Nle-c(Cys-His-D-Phe-Arg-Trp-Gaba-Pen)-NH2] | 3.9 nM
B8 | 1290 nM

Each binder was assayed against hMC1-R (human) (UniProt Q01726) (assay: cell-based or functional assay).
hMC1-R (human), sequence (Q01726 whole entry): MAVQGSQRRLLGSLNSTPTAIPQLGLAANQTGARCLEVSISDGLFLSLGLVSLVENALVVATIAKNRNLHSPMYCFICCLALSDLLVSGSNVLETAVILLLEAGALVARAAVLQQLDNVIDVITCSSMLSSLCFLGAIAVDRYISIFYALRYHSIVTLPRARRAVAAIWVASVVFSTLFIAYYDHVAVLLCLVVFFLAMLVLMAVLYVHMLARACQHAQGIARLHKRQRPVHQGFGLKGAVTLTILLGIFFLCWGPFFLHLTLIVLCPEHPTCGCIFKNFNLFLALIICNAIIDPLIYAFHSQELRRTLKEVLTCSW

Binder | cAMP EC50
B9 | 4.7
B1 | 37.9
[dF]CH[d(Et)Tyr][hArg][Bip][βAla][dC]T-NH2 (disulfide 2-8) [D-Phe-c(Cys-His-D-(Et)Tyr-hArg-Bip-β-Ala-D-Cys)-Thr-NH2] | 0.685 nM
B2 | 0.931 nM
B3 | 66.1
B4 | 770
[dF]CH[d(Et)Tyr][hArg]W[βAla][dC]T-NH2 (disulfide 2-8) [D-Phe-c(Cys-His-D-(Et)Tyr-hArg-Trp-β-Ala-D-Cys)-Thr-NH2] | 0.345 nM
B5 | 0.76 nM
B6 | 4.23 nM
B7 | 29.7
Ac-[Nle]CH[dF]RW[GABA][Pen]-NH2 (disulfide 2-8) [Ac-Nle-c(Cys-His-D-Phe-Arg-Trp-Gaba-Pen)-NH2] | 0.28 nM
B8 | 43.3

These binders were tested against hMC4-R (human) (UniProt P32245) (assay: cell-based or functional assay).
hMC4-R (human), sequence (P32245 whole entry): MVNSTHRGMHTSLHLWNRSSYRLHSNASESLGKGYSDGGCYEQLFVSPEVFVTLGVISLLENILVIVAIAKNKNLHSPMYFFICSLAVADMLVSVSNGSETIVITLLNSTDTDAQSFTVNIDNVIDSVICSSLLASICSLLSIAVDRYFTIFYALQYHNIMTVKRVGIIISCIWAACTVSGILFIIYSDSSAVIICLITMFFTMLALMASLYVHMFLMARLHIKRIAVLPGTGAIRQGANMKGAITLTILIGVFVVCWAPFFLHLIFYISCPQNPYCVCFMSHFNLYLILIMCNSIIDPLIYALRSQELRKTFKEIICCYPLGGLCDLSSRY

Binder | cAMP Kb | cAMP EC50
B1 | 41.1 | 
[dF]CH[d(Et)Tyr][hArg][Bip][βAla][dC]T-NH2 (disulfide 2-8) [D-Phe-c(Cys-His-D-(Et)Tyr-hArg-Bip-β-Ala-D-Cys)-Thr-NH2] |  | 86.9 nM
B2 |  | 1.65 nM
B3 | 0.687 | 
B4 | 4.52 | 
[dF]CH[d(Et)Tyr][hArg]W[βAla][dC]T-NH2 (disulfide 2-8) [D-Phe-c(Cys-His-D-(Et)Tyr-hArg-Trp-β-Ala-D-Cys)-Thr-NH2] |  | 5380 nM
B5 |  | 0.0492 nM
B6 |  | 0.719 nM
B7 | 7.37 | 
Ac-[Nle]CH[dF]RW[GABA][Pen]-NH2 (disulfide 2-8) [Ac-Nle-c(Cys-His-D-Phe-Arg-Trp-Gaba-Pen)-NH2] |  | 0.028 nM
B8 | 5.87 | 

— US20120135923A1, “Use of Melanocortins to Treat Dyslipidemia” (IPSEN PHARMA, S.A.S., priority 2009, published 2012)
